Results as given in article PMC11277095 (International Journal of Molecular Sciences, 2024).

Molecular target: the molecule itself
Assay: native gel or EMSA; 10 µg purified protein mixed with hypotonic buffer, hyperosmotic resealing solution (10% v/v Pigpa) or loading buffer; Tris/glycine buffer pH 8.3, 100 V; Coomassie staining

B1: Human ornithine aminotransferase variant R217A (OAT-R217A) (enzyme, UniProt P04181 26-439, looked up)
chain: TSVATKKTVQGPPTSDDIFEREYKYGAHNYHPLPVALERGKGIYLWDVEGRKYFDFLSSYSAVNQGHCHPKIVNALKSQVDKLTLTSRAFYNNVLGEYEEYITKLFNYHKVLPMNTGVEAGETACKLARKWGYTVKGIQKYKAKIVFAAGNFWGRTLSAISSSTDPTSYDGFGPFMPGFDIIPYNDLPALEAALQDPNVAAFMVEPIQGEAGVVVPDPGYLMGVRELCTRHQVLFIADEIQTGLARTGRWLAVDYENVRPDIVLLGKALSGGLYPVSAVLCDDDIMLTIKPGEHGSTYGGNPLGCRVAIAALEVLEEENLAENADKLGIILRNELMKLPSDVVTAVRGKGLLNAIVIKETKDWDAWKVCLRLRDNGLLAKPTHGDIIRFAPPLVIKEDELRESIEIINKTILSF
modifications: PLP bound to Lys292 through a Schiff base linkage
notes: Human ornithine aminotransferase, mitochondrial; construct printed as 'pET43a Δ26-439 OAT-R217A', the mature form with Arg217 changed to alanine; also called dimeric hOAT; source: E. coli BL21, purified (DEAE HiPrep FF, Sephacryl S-100)
B1: binds.
